From US20260159579A1 (Pfizer, published 2026) come the findings set out here.

Changes are numbered by the printed parent chain. Several values for one entry are separate records, joined by “and”; a condition that tells them apart may be missing. Identical values can stand only once.

T1: Mouse Fc-human GDF15 (Mu IgG1Fc_Fxa_Hu GDF15) (human)
T1 construct: Whole entry is the fusion: mouse IgG1 Fc, FXa site and linker, mature human GDF15; described as dimeric; also called Murine dimeric IgG1 Fc-human GDF-15 with FXa cleavage site; control human GDF15
T1 chain: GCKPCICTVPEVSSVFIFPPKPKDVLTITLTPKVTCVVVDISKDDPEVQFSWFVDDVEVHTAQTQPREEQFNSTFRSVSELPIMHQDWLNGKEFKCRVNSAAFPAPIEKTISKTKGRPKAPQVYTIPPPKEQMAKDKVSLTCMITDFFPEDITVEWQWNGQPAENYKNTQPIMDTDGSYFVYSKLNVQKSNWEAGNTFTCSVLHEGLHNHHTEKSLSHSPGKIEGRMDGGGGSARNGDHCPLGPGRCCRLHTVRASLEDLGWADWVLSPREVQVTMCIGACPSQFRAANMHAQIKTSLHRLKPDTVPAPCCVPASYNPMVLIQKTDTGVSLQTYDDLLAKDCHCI

B1: GDF15_014 (antibody, human IgG1, kappa, V domains shown)
VH: QVQLVQSGAEVKKPGSSVKVSCKASGYTFSSYNIDWVRQAPGQGLEWMGQINPINGLAFYNQKFQGRVTITADESTSTAYMELSSLRSEDTAVYYCAREAITTVGAMDYWGQGTLVTVSS
VL: EIVLTQSPATLSLSPGERATLSCRTSQNVHNYLAWYQQKPGQAPRLLIYDASNRATGIPARFSGSGSGTDFTLTISSLEPEDFAVYYCQQFWSDPYTFGQGTKVEIKR
notes: Tested in bivalent format
B2: GDF15_004 (antibody, human IgG1, kappa, V domains shown)
VH: B1 VH with I54N, F59N, N61A, V104I
VL: B1 VL with Q27E, N28S, N31S, N53T, T56D
notes: Tested in bivalent format
B3: GDF15_010 (antibody, human IgG1, kappa, V domains shown)
VH: B1 VH with S31D, Q50G, I54N, Y60F
VL: B1 VL with N28S, V29L, N31S, S93N, Y96W
notes: Tested in bivalent format
B4: GDF15_003 (antibody, human IgG1, kappa, V domains shown)
VH: B1 VH with S30T, I54N, A100Q
VL: B1 VL with T25A, N28S, V29L, H30S, N31S, S52K, T56D, W92S
notes: Tested in bivalent format
B5: GDF15_020 (antibody, human IgG1, kappa, V domains shown)
VH: B1 VH with S31D, I34M, I54N, F59N
VL: B1 VL with T25A, V29L, N31S, N53T, T56D
notes: Tested in bivalent format
B6: GDF15_017 (antibody, human IgG1, kappa, V domains shown)
VH: B1 VH with S30T, S31D, I54N, T91N
VL: B1 VL with N28S, N31S, S52K, N53T, W92S
notes: Tested in bivalent format
B7: GDF15_022 (antibody, human IgG1, kappa, V domains shown)
VH: B1 VH with S31D, I54N, A58I, Y60F, A100V
VL: B1 VL with N28S, N31S, S52K, N53T, T56D, W92S
notes: Tested in bivalent format
B8: GDF15_021 (antibody, human IgG1, kappa, V domains shown)
VH: B1 VH with Q50G, A58I, Y60F, Y109H
VL: B1 VL with Q27E, N31S, R54L, T56D
notes: Tested in bivalent format
B9: GDF15_015 (antibody, human IgG1, kappa, V domains shown)
VH: B1 VH with S31D, I34M, I54N, M107T
VL: B1 VL with N31S, R54L, T56D, W92S, S93N, Y96W
notes: Tested in bivalent format
B10: GDF15_013 (antibody, human IgG1, kappa, V domains shown)
VH: B1 VH with S31D, I34M, Q50G, I54N
VL: B1 VL with Q27E, N28S, N31S, S93N, D94W, Y96W
notes: Tested in bivalent format
B11: GDF15_0297 (antibody, mouse IgG1, kappa, V domains shown)
VH: QVQLQQPGAELVKPGASVKMSCKASGYPFEGWYIHWVKQRPGQGLEWMGWNNPRTGLTNHAQKFQGKVTMTRDTSSSTAYMQLSSLTSEDSAVYYCARGVGADAAFDIWGQGTTLTVSS
VL: DIVMTQSPSSLSVSAGEKVTMSCRSSQSLLWKHGYNYLDWYQQKPGQPPKLLIYLDRNRAHGVPDRFTGSGSGTDFTLTISSVQAEDLAVYYCMQSFETPITFGGGTKLEIKR
notes: Tested in bivalent format; also called GDF15_297
B12: GDF15_0301 (antibody, mouse IgG1, kappa, V domains shown)
VH: B11 VH with V68A, M70L, R72V
VL: B11 VL with M4L
notes: Tested in bivalent format; also called GDF15_301; mAB2
B13: GDF15_0470 (antibody, human IgG1, kappa, V domains shown)
VH: QVQLVQSGAEVKKPGASVKVSCKASGYPFEGWYIHWVRQAPGQGLEWMGWNNPRTGLTNHAQKFQGRVTMTRDTSISTAYMELSRLRSDDTAVYYCARGVGADAAFDIWGQGTMVTVSS
VL: EIVLTQSPATLSLSPGERATLSCRSSQSLLWKHGYNYLDWYQQKPGQAPRLLIYLDRNRAHGIPARFSGSGSGTDFTLTISSLEPEDFAVYYCMQSFETPITFGQGTKVEIKR
notes: Tested in bivalent format; also called GDF15-470

One experiment deals with T1, Mouse Fc-human GDF15 (Mu IgG1Fc_Fxa_Hu …). In words: SPR BIAcore T200, 37C; Fc-GDF15 captured, IgG as analyte; average of runs. As to the method:
(§1) Mouse Fc-human GDF15 (Mu IgG1Fc_Fxa_Hu GDF15; SEQ ID NO:2), Mouse Fc-mouse GDF15 (Mu IgG1Fc_Fxa_Mu GDF15; SEQ ID NO:5) and Mouse Fc-cynomolgus monkey GDF15 (Mu IgG1Fc_Fxa_Cyno GDF15; SEQ ID NO:4) were captured onto three different flow cells of a CM4 sensorchip (catalogue number BR100534, GE Healthcare) surface using the Mouse Antibody Capture Kit (BR100838, GE Healthcare) according to the manufacturer's protocol. The running and sample bufferwas 10 mM HEPES pH 7.4, 0.15M NaCl, 3 mM EDTA, 0.05% P-20 (HBS-EP+). The final capture levels of Mu IgG1Fc_Fxa_Hu GDF15, Mu IgG1Fc_Fxa_Mu GDF15 and Mu IgG1Fc_Fxa_Cyno GDF15 were 40 resonance units (RU), 32 RU and 25 RU respectively. Flow cell 1 was used as a reference flow cell. […] The dissociation was monitored for 2.8 hours and the surface was regenerated with 10 mM Glycine pH 1.7. Binding affinities and rate constants were determined for murine and cynomolgus monkey GDF15 by fitting the resulting sensorgram data to a 1:1 Langmuir model in BIAcore T200 Evaluation software version 2.0 (GE Healthcare).
(§2) Additionally, the binding of clone GDF15_001 to cynomolgus monkey and mouse GDF15 was measured using above mentioned BIAcore assay (Table 7).
(In general: In SPR one partner is held on a chip, and binding of the other changes the refractive index at the surface.)
Turning to B1, the Kd (as a rule, the concentration at which binding is half-saturated) was < 0.01 nM; the koff – broadly, the first-order rate constant of dissociation – worked out at 1.64e-05 s⁻¹; the kon (in general, the second-order rate constant of association) was 1.89e+06 M⁻¹ s⁻¹.

Regarding B2, the Kd stood at 0.037 nM, the koff was 7.67e-05 s⁻¹ and the kon was determined as 2.09e+06 M⁻¹ s⁻¹.

Molecule B3 came in with a Kd of 0.0157 nM, a koff of 1.63e-05 s⁻¹ and a kon of 1.1e+06 M⁻¹ s⁻¹.

In turn, B4 returned a Kd of 0.0271 nM, a koff of 8.2e-05 s⁻¹ and a kon of 3.03e+06 M⁻¹ s⁻¹.

The molecule B5 returned a Kd of 0.131 nM, a koff of 0.000104 s⁻¹ and a kon of 829000 M⁻¹ s⁻¹.

Regarding B6, the affinity, expressed as Kd, was 0.0349 nM; the koff worked out at 8.42e-05 s⁻¹; the kon came out at 2.57e+06 M⁻¹ s⁻¹.

Molecule B7 yielded a Kd of 0.0156 nM, a koff of 1.61e-05 s⁻¹ and a kon of 1.08e+06 M⁻¹ s⁻¹.

B8 displayed a Kd of 0.153 nM, a koff of 0.000322 s⁻¹ and an on-rate (kon) of 2.09e+06 M⁻¹ s⁻¹.

B9 had a Kd of 0.0584 nM, a koff of 0.000101 s⁻¹ and a kon of 1.74e+06 M⁻¹ s⁻¹.

As to B10, the Kd came to 0.018 nM, the koff turned out to be 7.08e-05 s⁻¹ and the kon is 4.86e+06 M⁻¹ s⁻¹.

Regarding B11, the dissociation constant Kd was < 0.01 nM, the koff is 1.19e-05 s⁻¹ and the kon was determined as 5.52e+06 M⁻¹ s⁻¹.

In the case of B12, the dissociation constant Kd is < 0.01 nM, the koff was 6.97e-06 s⁻¹ and the kon stood at 4.72e+06 M⁻¹ s⁻¹.

In the case of B13, the Kd is < 0.01 nM, the koff was 4.76e-05 s⁻¹ and the kon is 1.25e+07 M⁻¹ s⁻¹.

Another experiment shares this target. In words: SPR BIAcore T200, 37C; Fc-GDF15 captured, IgG as analyte. As to the method: as §1, §2
Take B1: the Kd is < 0.01 nM; the T½ min was 10.7 h and 13 h; the koff is 1.79e-05 s⁻¹ and 1.48e-05 s⁻¹; the kon was 1.88e+06 M⁻¹ s⁻¹ and 1.9e+06 M⁻¹ s⁻¹.

As to B2, the Kd is 0.0322 nM and 0.0419 nM; the T½ min was 2.7 h and 2.35 h; the koff was 7.14e-05 s⁻¹ and 8.2e-05 s⁻¹; the kon is 2.22e+06 M⁻¹ s⁻¹ and 1.96e+06 M⁻¹ s⁻¹.

Take B3: the Kd is 0.0113 nM and 0.0201 nM; the T½ min was 13.1 h and 10.8 h; the koff is 1.47e-05 s⁻¹ and 1.78e-05 s⁻¹; the kon was 1.31e+06 M⁻¹ s⁻¹ and 885000 M⁻¹ s⁻¹.

Consider B4, for which the Kd was 0.0274 nM and 0.0268 nM; the T½ min is 2.67 h and 2.1 h; the koff was 7.22e-05 s⁻¹ and 9.19e-05 s⁻¹; the kon was 2.64e+06 M⁻¹ s⁻¹ and 3.43e+06 M⁻¹ s⁻¹.

For the molecule B5, the Kd is 0.0974 nM and 0.165 nM; the T½ min is 2.03 h and 1.7 h; the koff was 9.46e-05 s⁻¹ and 0.000113 s⁻¹; the kon is 972000 M⁻¹ s⁻¹ and 686000 M⁻¹ s⁻¹.

As for B6, the Kd was 0.0267 nM and 0.043 nM; the T½ min is 2.35 h and 2.22 h; the koff is 8.18e-05 s⁻¹ and 8.66e-05 s⁻¹; the kon is 1.9e+06 M⁻¹ s⁻¹ and 3.24e+06 M⁻¹ s⁻¹.

In the case of B7, the Kd is 0.0132 nM and 0.0179 nM; the T½ min is 10.9 h and 13.3 h; the off-rate (koff) is 1.77e-05 s⁻¹ and 1.45e-05 s⁻¹; the kon was 1.34e+06 M⁻¹ s⁻¹ and 813000 M⁻¹ s⁻¹.

For B8, the Kd was 0.142 nM and 0.165 nM; the T½ min was 0.661 h and 0.547 h; the koff is 0.000291 s⁻¹ and 0.000352 s⁻¹; the kon is 2.05e+06 M⁻¹ s⁻¹ and 2.14e+06 M⁻¹ s⁻¹.

In the case of B9, the Kd is 0.0594 nM and 0.0573 nM; the T½ min is 1.94 h and 1.86 h; the koff is 9.93e-05 s⁻¹ and 0.000104 s⁻¹; the kon was 1.67e+06 M⁻¹ s⁻¹ and 1.81e+06 M⁻¹ s⁻¹.

B10: the Kd was 0.0275 nM and 0.0103 nM; the T½ min was 2.89 h and 2.56 h; the koff is 6.66e-05 s⁻¹ and 7.51e-05 s⁻¹.

As to B11, the Kd was < 0.01 nM; the T½ min is 17.7 h and 14.9 h; the koff was 1.09e-05 s⁻¹ and 1.29e-05 s⁻¹; the kon is 5.54e+06 M⁻¹ s⁻¹ and 5.5e+06 M⁻¹ s⁻¹.

As to B12, the Kd was < 0.01 nM; the kon was 3.36e+06 M⁻¹ s⁻¹ and 5.58e+06 M⁻¹ s⁻¹ and 5.22e+06 M⁻¹ s⁻¹.

Consider B13, for which the Kd was < 0.01 nM; the T½ min is 3.7 h and 4.47 h; the koff was 5.21e-05 s⁻¹ and 4.3e-05 s⁻¹; the kon is 1.2e+07 M⁻¹ s⁻¹ and 1.3e+07 M⁻¹ s⁻¹.

The target is the same in the next experiment. Nature of the experiment: SPR BIAcore T200; summary sentence for the clones of Table 6. As to the method: as §1, §2
Consider B5, for which the Kd is < 0.15 nM.

For the molecule B7, the Kd was < 0.15 nM.

Take B8: the Kd was < 0.15 nM.

With B11, the Kd is < 0.15 nM.

For B12, the Kd was < 0.15 nM.

B13: the Kd is < 0.15 nM.
